Measurements published in US20040087537A1.

Columns and labels:
[1] = biological target: low affinity human Nerve Growth Factor receptor truncated in its intracytoplasmic domain (delta-LNGFR), product of the HN vector (human); test: FACS on CEMss HN cells, control labeling
[2] = biological target: delta-LNGFR/F12Nef fusion protein, product of the NF vector (human LNGFR (NH2 moiety) fused to HIV-1 F12Nef (COOH moiety)); test: FACS on CEMss NF cells, control labeling

low affinity human Nerve Growth Factor receptor truncated in its intracytoplasmic domain (delta-LNGFR), product of the HN vector (human), sequence (chain, as listed by the source mutant limits assumed): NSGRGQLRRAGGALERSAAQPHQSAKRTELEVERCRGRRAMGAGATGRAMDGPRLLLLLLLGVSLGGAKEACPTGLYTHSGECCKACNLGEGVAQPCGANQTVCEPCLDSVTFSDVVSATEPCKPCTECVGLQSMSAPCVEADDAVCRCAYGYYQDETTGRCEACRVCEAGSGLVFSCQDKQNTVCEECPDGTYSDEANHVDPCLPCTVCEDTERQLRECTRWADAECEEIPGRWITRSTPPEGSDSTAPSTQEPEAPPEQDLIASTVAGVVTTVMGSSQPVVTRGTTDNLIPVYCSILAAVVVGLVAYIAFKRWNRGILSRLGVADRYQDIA

Substance “species and isotype matched IgG (antibody)” has an MFI [1] of 1 to 1.5 and an MFI [2] of 1 to 1.5.
